Laboratory results taken from US20240092941A1 (FRED HUTCHINSON CANCER CENTER, published 2024).

Target: T1, soluble ROR1 ectodomain (UniProt Q01973 30-406, limits assumed)
T1 construct: extracellular domain
Experiment: method not stated in the legend of FIG. 1

T1 sequence (Q01973 30-406 limits assumed): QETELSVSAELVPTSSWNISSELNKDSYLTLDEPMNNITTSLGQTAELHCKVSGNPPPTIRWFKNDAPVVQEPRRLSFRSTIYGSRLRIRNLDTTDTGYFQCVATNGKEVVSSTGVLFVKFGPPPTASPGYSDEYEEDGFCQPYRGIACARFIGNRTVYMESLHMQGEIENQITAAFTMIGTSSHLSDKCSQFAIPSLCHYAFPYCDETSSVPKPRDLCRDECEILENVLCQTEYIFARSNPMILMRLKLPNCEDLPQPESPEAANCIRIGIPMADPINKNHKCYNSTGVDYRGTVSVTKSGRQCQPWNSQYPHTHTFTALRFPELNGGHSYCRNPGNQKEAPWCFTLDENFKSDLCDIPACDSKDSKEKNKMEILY

Kd [nM]	Binder
2	Nb11 WT (VHH) VHH: QVKLVQSGGGLVQAGGSLRLSCAASGSIFSSASMGWYRQAPGKPREQVASITRDGNTYYEDDVKGRFTISRDNARSTGYLQMNSLTPEDTGVYYCNVYQLGFYDKWGQGTQVIVSS
2	Nb14 WT (VHH) VHH: QVKLVQSGGGLVQTGGSLRLSCAASEITFDMYSMGWYREAPGKARDAVASITNRGNTYYADSVKGRFTISRDNAKKTMYLQMNSLKPEDTAVYYCNVYRTGFSDYWGQGTQVTVSS
